Data reported in the supplement of paper PMC10567573.

B1: ZBED1 (parent)
chain: EQVFSLGDGVSGGFFGIRDSSFL
B2: CDKL4 (parent)
chain: AVKKFVESEDDPVVKKIALREIRM

Variants of: B1
Test: protein stability index of a GFP-peptide fusion (GPS, HEK-293T) (PSI 1-6); higher = more stable
Settings: c terminus: native
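Further: lentivirally expressed fusions sorted by FACS into six bins by GFP to DsRed ratio, PSI derived from sequencing read proportions per bin multiplied by bin number.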

Protein stability index: each site, then its substitutions
F22: W 3.73, K 2.39, E 4.08, V 3.35, T 4.07, R 3.61, G 4.14, S 3.79, H 4.5, N 4.22, P 3.43, L 3.41, Q 4.24, Y 3.33, I 3.04, M 3.49
L23: T 3.33, I 2.99, S 3.25, R 3.35, N 3.94, G 1.56, E 4.54, Y 2.61, F 2.63, C 3.34, K 4.35, V 3.19, M 3.67, A 2.42, H 3.9, Q 3.98, W 2.66, P 3.92, D 3.96

Variants of: B2
Test: as above
Settings: c terminus: a fixed tail appended

Protein stability index: each site, then its substitutions
E7: T 2.52, P 2.97, M 2.43, H 2.18, K 2.61, A 2.99, C 2.36, N 3.19, W 2.14, Q 2.54, F 1.94, Y 2.32, G 1.99, V 2.54, R 2.52, S 3.04, L 1.97, D 2.71, I 2
V14: K 2.82, D 3.48, N 3.5, T 3.26, A 3.01, E 4.1, W 2.65, F 2.01, Y 2.54, M 2.69, R 3.44, Q 3.71, S 2.98, G 2.97, C 3.74, P 3.12, I 2.56, L 2.89, H 3.38
K4: D 4.07, I 1.88, G 3.5, R 2.7, F 2.13, M 2.34, V 2.55, H 2.88, Y 2.25, N 2.92, E 3.55, C 2.6, Q 3.17, S 3.15, P 4.01, W 2.43, L 2.49, A 3.07, T 3.25
V2: T 3.35, G 3.82, K 3.55, N 3.63, H 3.03, F 2.52, A 3.8, I 2.31, R 2.85, D 3.71, C 2.85, Q 3.56, P 3.74, W 2.1, Y 2.52, S 3.51, E 4.01, L 3.7, M 2.79
K16: F 2.77, C 2.92, I 2.19, G 3.57, A 3.77, R 3.18, D 3.48, M 3.17, N 3.52, L 2.63, E 3.95, Q 3.48, H 3.22, P 2.61
D10: Q 2.8, R 3.15, E 2.99, M 2.65, S 2.83, A 2.58, V 2.23, I 1.81, F 1.77, W 2.16, Y 1.84, G 3.07, C 2.15, P 2.72, N 2.91, T 2.78, H 2.82, K 2.68, L 1.68
A1: V 2.43, W 2.72, R 2.45, K 2.91, Q 3.3, Y 2.2, C 2.48, N 3.38, L 1.99, F 2.21, P 3.17, D 3.75, I 2.16, S 3.94, G 3.63, E 3.85, T 3.1, M 2.69, H 2.59
V13: K 3.27, A 3.23, N 3.28, L 2.93, D 3.67, H 3.11, F 2.5, S 3.48, T 3.77, C 2.67, M 2.73, I 2.83, P 3.29, G 3.54, Q 3.47, R 3.08, W 2.49, E 3.35, Y 2.3
E9: K 2.69, Y 1.74, W 2.38, F 2.09, M 1.76, D 2.69, G 2.43, P 2.34, H 2.71, V 2.48, N 2.56, I 2.51, L 1.64, R 2.51, T 3.02, C 2.23, A 2.4, S 2.97, Q 3.19
S8: A 2.92, K 3.15, T 3.14, G 2.68, E 3.07, P 2.7, F 2.08, Q 3.27, C 2.54, Y 3.17, L 1.91, R 2.43, N 3.32, H 3.02, M 3.04, V 2.64, D 3.12, W 2.24, I 2.54
P12: E 3.88, A 3.04, D 3.22, M 1.95, N 3.08, V 2.48, C 3.05, K 3.23, T 2.76, S 2.99, Q 2.45, L 2.55, R 3.46, Y 2.18, G 2.57, I 2.52, W 1.82, H 2.77, F 2.66
F5: N 3.14, S 4.46, R 3.63, M 3.33, I 2.94, C 4.34, D 3.75, W 2.47, E 3.94, K 3.55, H 3.24, L 2.98, P 4.07, A 3.66, Q 3.01, V 3.81, Y 3.46, T 4, G 4.28
K15: L 1.95, I 2.4, P 3.46, F 2.58, E 3.44, R 2.81, M 1.87, T 2.66, Y 1.81, W 2.06, V 1.6, C 2.52, H 3.14, A 2.26, N 2.88, D 3.59, S 2.59, G 2.82, Q 2.86
V6: Q 3.42, W 2.57, D 3.65, T 3.16, C 2.82, R 2.48, L 3.23, P 3.78, I 1.93, Y 2.57, N 3.6, H 3.08, E 3.72, A 3.07, M 3.23, K 3.26, G 3.33, S 3.17, F 2.1
D11: Y 2.46, L 1.81, R 2.61, C 2.16, W 3.34, A 2.61, M 2.44, H 2.96, T 3, K 3.22, I 2.58, F 2.25, E 3.15, V 2.44, S 2.87, G 1.8, Q 2.81, N 3.19, P 2.81
K3: C 2.66, P 3.02, Q 3.04, T 2.86, W 2.35, F 1.76, A 2.83, V 1.95, M 2.28, N 3.45, Y 2.28, S 3.23, L 2.34, D 3.23, R 3.39, H 3.6, G 2.74, E 3.72, I 1.91
